We go through one substance from publication doi:10.1101/2020.12.07.415216.

The assay has as its target SARS-CoV-2 RBD homotrimer (RBD appended onto a cystine-stabilized, hyperglycosylated GCN4 trimerization tag) (SARS-CoV-2). The experiment in a line: SDS-PAGE under non-reducing conditions.

Regarding “SARS-CoV-2 RBD homotrimer (RBD appended onto a cystine-stabilized, hyperglycosylated GCN4 trimerization tag)”, the stoichiometry N was determined as 3.
